From publication PMC11257196 come the findings set out here.

This assay concerns the target human serum albumin (human) (UniProt P02768). Kind of assay: ultrafiltration.

Consider “interleukin-1 receptor antagonist in fusion to albumin binding domain (IL-1Ra-ABD) (from UniProt P18510 26-177)”, for which the percent bound is 78% and the percent released from HSA in the first 50 h was found to be 80%.
